# Experimental data published in publication PMC12382473, “Retinoid X receptor γ interacts with peroxisome proliferator-activated receptor-γ to promote browning during adipose tissue differentiation” (Adipocyte, 2025).
# T1: Flag-PPARγ, transfected in HEK293 cells (UniProt P37231 1-505)
# T1 sequence (looked up): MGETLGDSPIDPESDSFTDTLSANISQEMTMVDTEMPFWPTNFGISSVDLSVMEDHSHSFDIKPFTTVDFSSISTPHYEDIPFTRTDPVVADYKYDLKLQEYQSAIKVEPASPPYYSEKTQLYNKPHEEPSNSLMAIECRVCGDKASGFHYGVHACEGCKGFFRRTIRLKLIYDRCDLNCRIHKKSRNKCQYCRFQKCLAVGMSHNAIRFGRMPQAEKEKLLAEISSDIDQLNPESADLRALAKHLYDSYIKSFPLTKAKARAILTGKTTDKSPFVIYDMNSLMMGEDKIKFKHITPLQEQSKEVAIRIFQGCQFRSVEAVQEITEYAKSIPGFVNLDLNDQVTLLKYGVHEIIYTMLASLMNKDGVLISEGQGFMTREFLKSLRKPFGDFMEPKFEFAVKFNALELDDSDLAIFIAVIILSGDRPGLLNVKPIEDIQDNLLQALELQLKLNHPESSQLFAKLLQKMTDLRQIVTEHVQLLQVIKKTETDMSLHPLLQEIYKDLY
# B1: Myc-RXRγ (retinoid X receptor γ), transfected in HEK293 cells (natural protein, UniProt P48443 1-463, looked up)
# chain: MYGNYSHFMKFPAGYGGSPGHTGSTSMSPSAALSTGKPMDSHPSYTDTPVSAPRTLSAVGTPLNALGSPYRVITSAMGPPSGALAAPPGINLVAPPSSQLNVVNSVSSSEDIKPLPGLPGIGNMNYPSTSPGSLVKHICAICGDRSSGKHYGVYSCEGCKGFFKRTIRKDLIYTCRDNKDCLIDKRQRNRCQYCRYQKCLVMGMKREAVQEERQRSRERAESEAECATSGHEDMPVERILEAELAVEPKTESYGDMNMENSTNDPVTNICHAADKQLFTLVEWAKRIPHFSDLTLEDQVILLRAGWNELLIASFSHRSVSVQDGILLATGLHVHRSSAHSAGVGSIFDRVLTELVSKMKDMQMDKSELGCLRAIVLFNPDAKGLSNPSEVETLREKVYATLEAYTKQKYPEQPGRFAKLLLRLPALRSIGLKCLEHLFFFKLIGDTPIDTFLMEMLETPLQIT
# Target: T1, Flag-PPARγ, transfected in HEK293 cells
# Experiment: cell-based or functional assay
binder,measurement,value
B1,"luciferase activity of a PPRE reporter in HEK293 cells, RXRγ co-expressed with PPARγ (PPARγ alone 1.6-fold; RXRγ alone no increase)",2.1 fold
same,"luciferase activity of a UCP1 promoter reporter in HEK293 cells, RXRγ co-expressed with PPARγ (PPARγ alone 1.5-fold; RXRγ alone no increase)",3.4 fold
